The results in this text go back to patent US20250027068.

Positions count from the first letter of the chain named.

Sequences and labels used below:
B1: PRT-243 (protein)
chain: MVTSVWTKGVTPPANFTQGEDVFHAPYVANQGWYDITKLFNGKDDLLCGAATAGNMLHWWFDQNKDQIKRYLEEHPEKQKINFNGEQMFDVKEAIDTKNHQLDSKLFDYFKEKAFPNLSTKHLGVFPDHVIDMFINGYRLSLLNHGPTPVKEGSKDPRGGIFDAVFTRGDQSKLLTSRHDFKEKNLKEISDLIKKELTEGKALGLSHTYANGRINHVINLWGADFDSNGNLKAIYVTDSDSNPSIGMKKYFVGVNSSGKVAISAKEIKEDNIGAQVLGLFTLSTGQDSWNQTN
B2: IdeZ (protein)
chain: DDYQRNATEAYAKEVPHQITSVWTKGVTPLTPEQFRYNNEDVIHAPYLAHQGWYDITKAFDGKDNLLCGAATAGNMLHWWFDQNKTEIEAYLSKHPEKQKIIFNNQELFDLKAAIDTKDSQTNSQLFNYFRDKAFPNLSARQLGVMPDLVLDMFINGYYLNVFKTQSTDVNRPYQDKDKRGGIFDAVFTRGDQTTLLTARHDLKNKGLNDISTIIKQELTEGRALALSHTYANVSISHVINLWGADFNAEGNLEAIYVTDSDANASIGMKKYFVGINAHGHVAISAKKIEGENIGAQVLGLFTLSSGKDIWQKLS
B3: PRT-239 (protein)
chain: MEVVEVWPYGQNPNGKTEILSQTEDSESLQRLRDIEDFQAEKKMQNVVYTKWLDGVDVKDHDFRKIVDGGTAYYATPLLNGRGFYDINKDFNRDSLLCSAAVAANMFHYWLDINRDNVDRFLRQNPEKHGIIELPDGQLKLSDFLNTYESDHGYRDKSKLFDYISNNFNGGLWTDKLLDNYINGYGYNKKYGRTIEDPTKNTSKINFFKEVFNEKILTNNHQIRNQNEFSVLLSEALYTGKAIGLSYGPAGLRHSLGHIISVWGADLDADGNVVAIYVTDSDDKKLTIGDERVGLKRYKISTDDNNRLRLTAYEETHNTGGQIRGLWTLDTGKYAWADYFDKTEQTGTDQAEQLEHHHHHH
B4: PRT-22 (protein)
chain: MANQEIRYSEVTPYHVTSVWTKGVTPPANFTQGEDVFHAPYVANQGWYDITKTFNGKDDLLCGAATAGNMLHWWFDQNKDQIERYLKEHPEKQKINFNGEQMFDVKEAIDTKNSQLDSKLFEYFKEKAFPYLSTKHLGVFPDHVIDMFINGYRLSLTNHGPTPVKEGSKDPRGGIFDAVFTRGDQSKLLTSRHDFKEKNLKEISDLIKKELTEGKALGLSHTYANVRINHVINLWGADFDSNGNLKAIYVTDSDSNASIGMKKYFVGVNSAGKVAISAKEIKEDNIGAQVLGLFTLSTGQDIWNQTN
B5: PRT-231 (protein)
chain: MEVVEVWPYGQNPNGKTEILSQTEDSESLQRLRDIEDFQAEKKMQNVVYTKWLDGVDVKDHDFRKIVDGNIAYYATPLLNGRGFYDINKDFNRDSDKCAAAVAANMFHYWLDINRDNVDRFLRQNPEKHGIIELPDGQLKLSDFLNTYESDHGYRDKSKLFDFISNNFNGPVWTDKLLDNYINGYAYNYKYGRTIEDPTKNTSKINFFKEVFNEKILTNNHSIRNQNEFSVLLSEALYTGKAIGLSYGPAGLRHSLGHIISVWGADLDADGNVVAIYVTDSDDKKLTIGDERVGLKRYKISTDDENRARLTAYEETHNTGGQIRGLWTLDTGKYAWADYFDKTEQTGTDQAEQLEHHHHHH
B6: PRT-233 (protein)
chain: B5 chain with I113R, A308L
B7: PRT-234 (protein)
chain: B5 chain with H152D, A308L
B8: PRT-232 (protein)
chain: B5 chain with A308L, Y334E
B9: PRT-238 (protein)
chain: B5 chain with N70G, K97L, F163Y, A186G, A308L
B10: PRT-236 (protein)
chain: B5 chain with K59D, A308L
B11: PRT-237 (protein)
chain: B5 chain with A72E, A308L
B12: PRT-235 (protein)
chain: B5 chain with A308L, H317D
B13: IdeZ2 (protein)
chain: EVVEVWPYGQNPNGKTEILSQTEDSESLQRLRDIEDFQAEKKMQNVVYTKWLDGVDVKDHDFRKIVDGNIAYYATPLLNGRGFYDINKDFNRDSDKCAAAVAANMFHYWLDINRDNVDRFLRQNPEKHGIIELPDGQLKLSDFLNTYESDHGYRDKSKLFDFISNNFNGPVWTDKLLDNYINGYAYNYKYGRTIEDPTKNTSKINFFKEVFNEKILTNNHSIRNQNEFSVLLSEALYTGKAIGLSYGPAGLRHSLGHIISVWGADLDADGNVVAIYVTDSDDKKLTIGDERVGLKRYKISTDDENRLRLTAYEETHNTGGQIRGLWTLDTGKYAWADYFDKTEQTGTDQAEQ
B14: PRT-241 (protein)
chain: B1 chain with L39T, D108E, G212V, P243A
B15: Ide85 (protein)
chain: MANQEIRYSEVTPYHVTSVWTKGVTPPAKFTQGEDVFHAPYVANQGWYDITKTFNGKDDLLCGAATAGNMLHWWFDQNKEKIEAYLKKHPDKQKIMFGDQELLDVRKVINTKGDQTNSELFNYFRDKAFPGLSARRIGVMPDLVLDMFINGYYLNVYKTQTTDVNRTYQEKDRRGGIFDAVFTRGDQSKLLTSRHDFKEKNLKEISDLIKKELTEGKALGLSHTYANVRINHVINLWGADFDSNGNLKAIYVTDSDSNASIGMKKYFVGVNSAGKVAISAKEIKEDNIGAQVLGLFTLSTGQDSWNQTN
B16: IdeS (protein)
chain: ANQEIRYSEVTPYHVTSVWTKGVTPPANFTQGEDVFHAPYVANQGWYDITKTFNGKDDLLCGAATAGNMLHWWFDQNKDQIKRYLEEHPEKQKINFNGEQMFDVKEAIDTKNHQLDSKLFEYFKEKAFPYLSTKHLGVFPDHVIDMFINGYRLSLTNHGPTPVKEGSKDPRGGIFDAVFTRGDQSKLLTSRHDFKEKNLKEISDLIKKELTEGKALGLSHTYANVRINHVINLWGADFDSNGNLKAIYVTDSDSNASIGMKKYFVGVNSAGKVAISAKEIKEDNIGAQVLGLFTLSTGQDSWNQTN
B17: PRT-240 (protein)
chain: MEVVEVWPYGQNPNGKTEILSQTEDSESLQRLRDIEDFQAEKKMQNVVYTKWLDGVDVKDHDFRKIVDGDYAYYATPLLNGRGFYDINKDFNRDSDKCAAAVAANMFHYWLDINRDNVDRFLRQNPEKHGIIELPDGQLKLSDFLNTYESDHGYRDKSKLFDFISNAFNGPVWADKLLDNYINGYGYNKKYGRTIEDPTKNTSKFNFFKEVFNEKILTNNHQIRNQNEFSVLLSEALYTGKAIGLAYGPGGLRHSLGHIISVWGADLDADGNVVAIYVTDSDDKKLTIGDERVGLKRYKISTDDNNRLRLTTYEETHNTGAQIRGLETLDTGKYAWADYFDKTEQTGTDQAEQLEHHHHHH

One series has as its target pooled human IgG (human IgG1,2,3 and 4).
B1 yielded an Enzyme Activity Endpoint Assay: Fab′2 of 967 ng/µL, an Enzyme Activity Endpoint Assay: Fc of 430 ng/µL, an Enzyme Activity Endpoint Assay: IgG of 25 ng/µL and an Enzyme Activity Endpoint Assay: scIgG of 0 ng/µL.

The target of the next series is pooled human IgG.
On to B2, for which the Enzyme Activity Endpoint Assay (purified): Fab'2 amounted to 1290 ng/µL, the Enzyme Activity Endpoint Assay (purified): Fc amounted to 481 ng/µL, the Enzyme Activity Endpoint Assay (purified): IgG is 0 ng/µL and the Enzyme Activity Endpoint Assay (purified): scIgG came out at 0 ng/µL.

As to B3, the Enzyme Activity Endpoint Assay (purified): Fab'2 amounted to 49 ng/µL, the Enzyme Activity Endpoint Assay (purified): Fc amounted to 269 ng/µL, the Enzyme Activity Endpoint Assay (purified): IgG turned out to be 689 ng/µL and the Enzyme Activity Endpoint Assay (purified): scIgG stood at 360 ng/µL.

Take B4: the Enzyme Activity Endpoint Assay: Fab′2 stood at 37 ng/µL, the Enzyme Activity Endpoint Assay: Fc turned out to be 116 ng/µL, the Enzyme Activity Endpoint Assay: IgG stood at 19 ng/µL and the Enzyme Activity Endpoint Assay: scIgG came out at 23 ng/µL.

Consider B5, for which the Enzyme Activity Endpoint Assay (purified): Fab'2 came to 176 ng/µL, the Enzyme Activity Endpoint Assay (purified): Fc worked out at 388 ng/µL, the Enzyme Activity Endpoint Assay (purified): IgG worked out at 465 ng/µL and the Enzyme Activity Endpoint Assay (purified): scIgG worked out at 313 ng/µL.

B6 gave an Enzyme Activity Endpoint Assay (purified): Fab'2 of 94 ng/µL, an Enzyme Activity Endpoint Assay (purified): Fc of 376 ng/µL, an Enzyme Activity Endpoint Assay (purified): IgG of 596 ng/µL and an Enzyme Activity Endpoint Assay (purified): scIgG of 415 ng/µL.

In the case of B7, the Enzyme Activity Endpoint Assay (purified): Fab'2 amounted to 88 ng/µL, the Enzyme Activity Endpoint Assay (purified): Fc turned out to be 376 ng/µL, the Enzyme Activity Endpoint Assay (purified): IgG is 640 ng/µL and the Enzyme Activity Endpoint Assay (purified): scIgG amounted to 432 ng/µL.

Protein B8 yielded an Enzyme Activity Endpoint Assay (purified): Fab'2 of 40 ng/µL, an Enzyme Activity Endpoint Assay (purified): Fc of 283 ng/µL, an Enzyme Activity Endpoint Assay (purified): IgG of 624 ng/µL and an Enzyme Activity Endpoint Assay (purified): scIgG of 393 ng/µL.

For the protein B9, the Enzyme Activity Endpoint Assay (purified): Fab'2 came out at 0 ng/µL, the Enzyme Activity Endpoint Assay (purified): Fc amounted to 81 ng/µL, the Enzyme Activity Endpoint Assay (purified): IgG was 1610 ng/µL and the Enzyme Activity Endpoint Assay (purified): scIgG was 28 ng/µL.

Consider B10, for which the Enzyme Activity Endpoint Assay (purified): Fab'2 stood at 294 ng/µL, the Enzyme Activity Endpoint Assay (purified): Fc came to 615 ng/µL, the Enzyme Activity Endpoint Assay (purified): IgG stood at 594 ng/µL and the Enzyme Activity Endpoint Assay (purified): scIgG stood at 472 ng/µL.

The protein B11 showed an Enzyme Activity Endpoint Assay (purified): Fab'2 of 828 ng/µL, an Enzyme Activity Endpoint Assay (purified): Fc of 415 ng/µL, an Enzyme Activity Endpoint Assay (purified): IgG of 685 ng/µL and an Enzyme Activity Endpoint Assay (purified): scIgG of 461 ng/µL.

As to B12, the Enzyme Activity Endpoint Assay (purified): Fab'2 was 116 ng/µL, the Enzyme Activity Endpoint Assay (purified): Fc was determined as 448 ng/µL, the Enzyme Activity Endpoint Assay (purified): IgG worked out at 711 ng/µL and the Enzyme Activity Endpoint Assay (purified): scIgG is 483 ng/µL.

B13 came in with an Enzyme Activity Endpoint Assay (purified): Fab'2 of 1340 ng/µL, an Enzyme Activity Endpoint Assay (purified): Fc of 566 ng/µL, an Enzyme Activity Endpoint Assay (purified): IgG of 0 ng/µL and an Enzyme Activity Endpoint Assay (purified): scIgG of 0 ng/µL.

With B14, the Enzyme Activity Endpoint Assay (purified): Fab'2 came to 731 ng/µL, the Enzyme Activity Endpoint Assay (purified): Fc came to 406 ng/µL, the Enzyme Activity Endpoint Assay (purified): IgG was 0 ng/µL and the Enzyme Activity Endpoint Assay (purified): scIgG is 0 ng/µL.

For B15, the Enzyme Activity Endpoint Assay (purified): Fab'2 was 1130 ng/µL, the Enzyme Activity Endpoint Assay (purified): Fc is 615 ng/µL, the Enzyme Activity Endpoint Assay (purified): IgG amounted to 0 ng/µL and the Enzyme Activity Endpoint Assay (purified): scIgG turned out to be 0 ng/µL.

On to B16, for which the Enzyme Activity Endpoint Assay (purified): Fab'2 was 1360 ng/µL, the Enzyme Activity Endpoint Assay (purified): Fc is 524 ng/µL, the Enzyme Activity Endpoint Assay (purified): IgG is 0 ng/µL and the Enzyme Activity Endpoint Assay (purified): scIgG amounted to 0 ng/µL.

B17: the Enzyme Activity Endpoint Assay (purified): Fab'2 came to 0 ng/µL, the Enzyme Activity Endpoint Assay (purified): Fc worked out at 82 ng/µL, the Enzyme Activity Endpoint Assay (purified): IgG worked out at 1400 ng/µL and the Enzyme Activity Endpoint Assay (purified): scIgG worked out at 36 ng/µL.
